Source: article PMC5643395

Test system: histone octamer WT
Test: ensemble FRET (microplate), salt-induced disassembly
Details: Reconstitution by dialysis from 2 M to 5 mM NaCl in 10 mM Tris-HCl, 0.1 mM EDTA; FRET over NaCl titration (FRET buffer and temperature not in the material) …

## Widom 601 170 bp
  K half: 800 mM NaCl
